In this assay the target is RSC chromatin remodeling complex (S. cerevisiae) (UniProt P32597). As to the kind of experiment: BLI.
Chain of UniProt P32597 (P32597 whole entry, looked up, one chain of several): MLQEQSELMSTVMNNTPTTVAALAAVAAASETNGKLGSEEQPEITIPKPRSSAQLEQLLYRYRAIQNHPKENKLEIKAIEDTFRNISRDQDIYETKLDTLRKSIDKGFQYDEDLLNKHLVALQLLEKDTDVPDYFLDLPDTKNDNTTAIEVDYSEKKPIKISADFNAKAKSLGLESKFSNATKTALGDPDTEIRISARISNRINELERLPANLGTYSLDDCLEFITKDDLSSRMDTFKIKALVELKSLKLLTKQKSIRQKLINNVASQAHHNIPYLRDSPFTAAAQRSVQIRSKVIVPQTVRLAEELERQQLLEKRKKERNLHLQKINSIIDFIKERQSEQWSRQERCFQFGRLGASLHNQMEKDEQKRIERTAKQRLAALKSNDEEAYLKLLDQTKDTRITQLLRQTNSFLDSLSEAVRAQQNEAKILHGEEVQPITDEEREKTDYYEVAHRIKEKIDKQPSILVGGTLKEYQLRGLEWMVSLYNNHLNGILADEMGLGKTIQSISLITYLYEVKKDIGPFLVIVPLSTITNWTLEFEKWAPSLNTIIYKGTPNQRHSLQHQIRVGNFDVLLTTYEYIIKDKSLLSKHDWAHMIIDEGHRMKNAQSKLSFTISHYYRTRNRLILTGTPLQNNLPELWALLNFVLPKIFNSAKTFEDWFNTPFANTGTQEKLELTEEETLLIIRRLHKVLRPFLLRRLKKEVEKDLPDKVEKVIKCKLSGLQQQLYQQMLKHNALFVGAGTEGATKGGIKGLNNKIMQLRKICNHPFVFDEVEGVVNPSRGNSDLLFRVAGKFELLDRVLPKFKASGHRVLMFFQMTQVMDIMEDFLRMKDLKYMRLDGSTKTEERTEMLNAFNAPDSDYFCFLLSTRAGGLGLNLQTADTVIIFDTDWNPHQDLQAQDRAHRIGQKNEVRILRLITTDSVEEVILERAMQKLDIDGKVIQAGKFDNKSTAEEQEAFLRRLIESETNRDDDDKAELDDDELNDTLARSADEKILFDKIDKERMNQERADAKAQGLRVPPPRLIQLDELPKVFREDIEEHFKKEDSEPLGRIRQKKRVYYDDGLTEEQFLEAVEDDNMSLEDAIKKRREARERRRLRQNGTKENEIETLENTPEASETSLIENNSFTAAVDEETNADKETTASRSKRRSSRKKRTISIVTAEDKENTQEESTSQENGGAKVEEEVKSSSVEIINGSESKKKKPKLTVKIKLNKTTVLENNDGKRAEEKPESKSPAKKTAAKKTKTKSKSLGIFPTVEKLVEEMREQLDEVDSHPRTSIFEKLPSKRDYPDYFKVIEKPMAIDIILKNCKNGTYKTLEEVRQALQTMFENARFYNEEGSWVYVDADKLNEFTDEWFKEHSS

“SUMOylated nucleosome with an in-frame fusion of SUMO to H2B (from UniProt P02281 6-126) (complex)” came in with a fold higher affinity than for unmodified nucleosomes of 2 fold.
